The results in this text go back to patent US6558913.

The series has as its target factor Xa-activated factor V(Q506) (UniProt P12259).
Sequence of UniProt P12259 (P12259 29-737 R534Q, chain 1 of 2): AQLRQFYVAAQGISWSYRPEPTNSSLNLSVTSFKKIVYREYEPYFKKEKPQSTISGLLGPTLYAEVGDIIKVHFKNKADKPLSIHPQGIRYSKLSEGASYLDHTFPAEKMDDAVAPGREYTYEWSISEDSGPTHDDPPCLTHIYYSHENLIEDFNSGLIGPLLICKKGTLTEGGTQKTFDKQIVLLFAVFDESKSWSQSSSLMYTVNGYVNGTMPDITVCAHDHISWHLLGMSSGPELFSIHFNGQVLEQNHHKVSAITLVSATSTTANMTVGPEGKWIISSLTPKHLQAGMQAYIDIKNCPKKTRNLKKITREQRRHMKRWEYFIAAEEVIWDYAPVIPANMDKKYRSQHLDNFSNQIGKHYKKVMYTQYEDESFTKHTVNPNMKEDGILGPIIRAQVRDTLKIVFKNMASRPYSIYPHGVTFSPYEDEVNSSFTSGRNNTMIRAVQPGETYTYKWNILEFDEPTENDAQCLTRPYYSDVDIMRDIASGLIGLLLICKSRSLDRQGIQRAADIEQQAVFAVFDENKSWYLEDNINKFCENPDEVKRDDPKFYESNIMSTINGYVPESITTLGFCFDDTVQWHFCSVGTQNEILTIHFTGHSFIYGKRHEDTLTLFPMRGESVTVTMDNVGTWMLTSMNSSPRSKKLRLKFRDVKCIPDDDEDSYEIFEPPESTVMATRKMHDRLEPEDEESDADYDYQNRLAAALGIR
Sequence of UniProt P12259 (P12259 1047-2224, chain 2 of 2): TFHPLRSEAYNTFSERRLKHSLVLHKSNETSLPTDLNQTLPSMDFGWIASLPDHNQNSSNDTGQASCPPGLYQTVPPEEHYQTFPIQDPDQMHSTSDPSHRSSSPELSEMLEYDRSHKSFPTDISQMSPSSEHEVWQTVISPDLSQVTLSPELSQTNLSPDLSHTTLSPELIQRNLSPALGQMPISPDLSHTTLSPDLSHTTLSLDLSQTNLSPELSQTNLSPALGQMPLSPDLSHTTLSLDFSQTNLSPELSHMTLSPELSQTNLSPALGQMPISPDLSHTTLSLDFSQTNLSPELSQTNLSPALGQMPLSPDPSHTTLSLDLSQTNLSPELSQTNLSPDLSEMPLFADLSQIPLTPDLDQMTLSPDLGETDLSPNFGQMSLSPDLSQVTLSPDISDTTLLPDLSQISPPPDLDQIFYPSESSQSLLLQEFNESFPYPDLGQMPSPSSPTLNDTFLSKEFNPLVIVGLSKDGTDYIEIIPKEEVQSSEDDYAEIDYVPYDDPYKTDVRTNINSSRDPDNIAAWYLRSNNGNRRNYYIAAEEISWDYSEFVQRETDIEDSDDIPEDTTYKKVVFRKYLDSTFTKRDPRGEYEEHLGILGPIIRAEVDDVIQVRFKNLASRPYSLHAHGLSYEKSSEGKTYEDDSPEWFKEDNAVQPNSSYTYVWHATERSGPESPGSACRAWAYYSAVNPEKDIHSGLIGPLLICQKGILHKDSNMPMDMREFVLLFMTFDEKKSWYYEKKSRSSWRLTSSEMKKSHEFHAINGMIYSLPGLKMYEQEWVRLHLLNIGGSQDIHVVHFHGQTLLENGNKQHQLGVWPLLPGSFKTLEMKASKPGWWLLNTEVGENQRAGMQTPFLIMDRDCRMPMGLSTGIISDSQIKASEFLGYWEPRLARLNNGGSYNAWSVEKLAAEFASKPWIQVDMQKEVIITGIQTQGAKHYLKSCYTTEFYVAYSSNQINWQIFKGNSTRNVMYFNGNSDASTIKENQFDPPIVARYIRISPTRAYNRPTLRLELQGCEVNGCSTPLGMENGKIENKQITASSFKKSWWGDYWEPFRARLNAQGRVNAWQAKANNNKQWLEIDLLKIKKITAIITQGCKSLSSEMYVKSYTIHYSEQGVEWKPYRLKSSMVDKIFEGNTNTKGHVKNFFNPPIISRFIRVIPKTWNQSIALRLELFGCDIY

As for activated protein C, the “factor Va activity over time after addition of APC (inactivation by APC)” value was “the replacement of Arg-506 by Gln only prevents the inactivation of the Xa-activated form of factor V by APC (FIG. 8)”.
